Measurements as given in the supplement of paper PMC7877785.
± gives the uncertainty stated by the source.

Test: self-splicing fitness, log relative to wild type (ln ratio); higher = more splicing; Tetrahymena group I intron in knt gene, E. coli kanamycin selection, DiMSum; sequences stand for … in CUCUCU…GGAGGGAAAAGUUAUCAGGCAUGCACCUGGUAGCUAGUCUUUAAACCAAUAGAUUGCAUCGGUUUAAAAGGCAAGACCGUCAAAUUGCGGGAAAGGGGUCAACAGCCGUUCAGUACCAAGUCUCAGGGGAAACUUUGAGAUGGCCUUGCAAAGGGUAUGGUAAUAAGCUGACGGACAUGGUCCUAACCACGCAGCCAAGUCCUAAGUCAACAGAUCUUCUGUUGAUAUGGAUGCAGUUCACAGACUAAAUGUCGGUCGGGGAAGAUGUAUUCUUCUCAUAAGAUAUAGUCGGACCUCUCCUUAAUGGGAGCUAGCGGAUGAAGUGAUGCAACACUGGAGCCGCUGGGAACUAAUUUGUAUGCGAAAGUAUAUUGAUUAGUUUUGGAGUACUCGUGGUCG
In short: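 Library with all eight P1ex-region intron nucleotides randomised, intron inside the knt kanamycin-resistance gene on pET-22b(+), in E. coli BL21(DE3). Cells grew overnight at 37°C or 30°C on LB agar with or without 25 μg/mL kanamycin (plus 100 μg/mL carbenicillin, 50 μM IPTG, 0.2% rhamnose), in six replicate transformations. Pooled colonies were amplicon-sequenced on Illumina HiSeq 2500. DiMSum fitness is the error-weighted combination of wild-type-normalised replicate fold changes, kanamycin versus none.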

Sequence	self-splicing fitness (ln) (30 °C)	self-splicing fitness (ln) (37 °C)
GCUGAGCAAUAUUACGUAAG	-1.55 ± 0.12	-0.739 ± 0.16
CAUAAGCAAUAUUACGACGG	-0.41 ± 0.072	-0.00998 ± 0.088
AUGGAGCAAUAUUACGAUCU		-0.713 ± 0.31
UUUAAGCAAUAUUACGCGCC	-1.12 ± 0.18	-1.4 ± 0.26
GAAUAGCAAUAUUACGAGAC		-0.147 ± 0.18
AUGCAGCAAUAUUACGUUCU	-0.207 ± 0.058	0.262 ± 0.079
GCGUAGCAAUAUUACGGAUG	-1.41 ± 0.16	-1.98 ± 0.18
GAAAAGCAAUAUUACGGUUG	-2.39 ± 0.088	-1.42 ± 0.12
GGUGAGCAAUAUUACGGCGA	-1.1 ± 0.12	-1.39 ± 0.14
ACCGAGCAAUAUUACGCUUG	-3.65 ± 0.21	-2.17 ± 0.26
CCCUAGCAAUAUUACGAACA		-2.55 ± 0.42
GCCAAGCAAUAUUACGUCGC	-2.63 ± 0.14	-1.23 ± 0.1
UGCUAGCAAUAUUACGUAUC		-2.07 ± 0.38
UAACAGCAAUAUUACGUGAU	-2.4 ± 0.12	-1.7 ± 0.17
CAAGAGCAAUAUUACGGAUU	-3.03 ± 0.25	-3.21 ± 0.37
AUUGAGCAAUAUUACGUAGC	-3.31 ± 0.4	-2.32 ± 0.31
AACUAGCAAUAUUACGGGGG	-2.73 ± 0.2	-1.53 ± 0.22
GCCAAGCAAUAUUACGAAGA	-2.96 ± 0.21	-1.39 ± 0.17
AACAAGCAAUAUUACGUCCG	-1.26 ± 0.067	-0.444 ± 0.085
UCAUAGCAAUAUUACGAAGU	-3.43 ± 0.16	-3.51 ± 0.39
ACAUAGCAAUAUUACGUGUC	-4.9 ± 0.41	-2.72 ± 0.28
UUCGAGCAAUAUUACGCAGU	-2.87 ± 0.36	-1.61 ± 0.33
GGAAAGCAAUAUUACGAGCA	-1.01 ± 0.078	-0.54 ± 0.083
UACGAGCAAUAUUACGAAGG		-0.765 ± 0.3
AGCUAGCAAUAUUACGUACU	-0.454 ± 0.095	-0.144 ± 0.12

Sequence	self-splicing fitness (ln) (30 °C)	self-splicing fitness (ln) (37 °C)
GCCUAGCAAUAUUACGUGCA	-2.35 ± 0.12	-0.937 ± 0.1
UUUCAGCAAUAUUACGCCGU	-3.39 ± 0.36	-1.45 ± 0.26
CUUCAGCAAUAUUACGCUAG	-3.22 ± 0.26	-1.34 ± 0.19
CGAAAGCAAUAUUACGCUCG	-3.71 ± 0.3	-2.26 ± 0.22
UUGGAGCAAUAUUACGGUUG	-3.97 ± 0.28	-3.38 ± 0.31
UACUAGCAAUAUUACGCUAU	-2.8 ± 0.21	-1.32 ± 0.16
GGCUAGCAAUAUUACGUCUA	-0.349 ± 0.13	-0.105 ± 0.11
GGAUAGCAAUAUUACGAACC	-2.49 ± 0.36	-1.77 ± 0.28
UCCGAGCAAUAUUACGUGUC		-2.64 ± 0.34
GUGGAGCAAUAUUACGGUGU	-2.5 ± 0.17	-1.78 ± 0.22
GGGAAGCAAUAUUACGACAA	-2 ± 0.2	-1.34 ± 0.19
AAAGAGCAAUAUUACGCACC	-2.03 ± 0.15	-0.855 ± 0.17
GUACAGCAAUAUUACGAGCG	-2.59 ± 0.11	-0.624 ± 0.098
AGGUAGCAAUAUUACGGGAG	-3.83 ± 0.03	-2.39 ± 0.038
GUUAAGCAAUAUUACGUAUC	-1.79 ± 0.1	-1.46 ± 0.14
AAGAAGCAAUAUUACGAAGC	-3.02 ± 0.18	-2.43 ± 0.28
AGCGAGCAAUAUUACGGGAA		-1.86 ± 0.27
CUCGAGCAAUAUUACGUCAU	-4.1 ± 0.27	-3.38 ± 0.28
GCCAAGCAAUAUUACGCUAC	-4.34 ± 0.42	-2.22 ± 0.16
UUCUAGCAAUAUUACGUCGA	-1.02 ± 0.13	-0.474 ± 0.15
UAUCAGCAAUAUUACGAGUC		-1.81 ± 0.48
CAUAAGCAAUAUUACGCGCA	-1.4 ± 0.11	-0.55 ± 0.11
AGCGAGCAAUAUUACGUGGU	-3.2 ± 0.25	-3.06 ± 0.22
UUUAAGCAAUAUUACGAGGU	-3.65 ± 0.22	-2.04 ± 0.15
UCGUAGCAAUAUUACGAGUU	-3.76 ± 0.25	-2.5 ± 0.2

Sequence	self-splicing fitness (ln) (30 °C)	self-splicing fitness (ln) (37 °C)
CCGCAGCAAUAUUACGCGUA	-2.58 ± 0.16	-0.978 ± 0.11
AUUUAGCAAUAUUACGCCCG	-1.48 ± 0.24	-1.15 ± 0.28
GAGGAGCAAUAUUACGGAUC	-1.61 ± 0.16	-0.13 ± 0.17
CACAAGCAAUAUUACGAAGA	-2.71 ± 0.18	-2.36 ± 0.2
AUUCAGCAAUAUUACGAGAA	-1.51 ± 0.18	-1.74 ± 0.18
AAGUAGCAAUAUUACGAUCC	-0.772 ± 0.19	-0.304 ± 0.29
UAGAAGCAAUAUUACGUAAG	-2.31 ± 0.13	-1.3 ± 0.16
GUAGAGCAAUAUUACGGUUU	-1.75 ± 0.11	-0.8 ± 0.13
ACCUAGCAAUAUUACGCAGA	-2.23 ± 0.09	-1.11 ± 0.082
AGGUAGCAAUAUUACGAGCU	-0.0909 ± 0.015	-0.123 ± 0.034
CGUGAGCAAUAUUACGAACG	-2.89 ± 0.38	
CCCCAGCAAUAUUACGCCCG	-1.79 ± 0.17	-2.57 ± 0.28
AUCGAGCAAUAUUACGGCUG	-1.8 ± 0.24	-0.221 ± 0.35
ACUCAGCAAUAUUACGCGUA	-0.747 ± 0.11	-0.395 ± 0.11
UUUUAGCAAUAUUACGGGAC	-2.5 ± 0.26	-1.83 ± 0.47
AGAUAGCAAUAUUACGUGAA	-1.95 ± 0.082	-1.85 ± 0.12
AUAUAGCAAUAUUACGCGCG	-0.915 ± 0.12	-0.503 ± 0.15
AAAGAGCAAUAUUACGUGUC	-3.42 ± 0.15	-2.2 ± 0.12
CUUGAGCAAUAUUACGCUAU	-3.44 ± 0.34	-2.58 ± 0.49
CGGGAGCAAUAUUACGAGGU	-4.39 ± 0.39	-2.18 ± 0.31
AGAAAGCAAUAUUACGUCGC	-2.69 ± 0.16	-1.76 ± 0.15
GAUCAGCAAUAUUACGGACG	-0.737 ± 0.13	-0.212 ± 0.18
UGCUAGCAAUAUUACGACCG	-0.534 ± 0.17	-0.458 ± 0.19
GUGUAGCAAUAUUACGAGAU	-2.83 ± 0.26	-1.23 ± 0.22
UCCUAGCAAUAUUACGUUGU		-1.99 ± 0.29

Sequence	self-splicing fitness (ln) (30 °C)	self-splicing fitness (ln) (37 °C)
GUUAAGCAAUAUUACGUGGG	-2.87 ± 0.13	-2.65 ± 0.17
CCGUAGCAAUAUUACGAUGU	-4.42 ± 0.33	-1.79 ± 0.18
AUUAAGCAAUAUUACGAGGG		-2.96 ± 0.36
GGUGAGCAAUAUUACGAUAU	-2.31 ± 0.2	-1.83 ± 0.23
CAUCAGCAAUAUUACGUUAG	-0.472 ± 0.073	-0.526 ± 0.08
AGGGAGCAAUAUUACGGUUA	-2.53 ± 0.17	-2.98 ± 0.28
AACGAGCAAUAUUACGGAUG	-3.34 ± 0.31	
UGCUAGCAAUAUUACGUCUC	-3.59 ± 0.16	-2.91 ± 0.2
GGCAAGCAAUAUUACGCGGA	-0.732 ± 0.095	-0.268 ± 0.094
UAGCAGCAAUAUUACGUUAU	-3.74 ± 0.23	-2.92 ± 0.24
GGUUAGCAAUAUUACGUGGA	-2.72 ± 0.2	-1.08 ± 0.14
CAUUAGCAAUAUUACGAGGU	-3.01 ± 0.27	-2.66 ± 0.3
ACAGAGCAAUAUUACGAUCG	-2.71 ± 0.18	-1.88 ± 0.23
UAUCAGCAAUAUUACGGGCC		-2.07 ± 0.3
AGAGAGCAAUAUUACGCCCA		-0.88 ± 0.36
AUACAGCAAUAUUACGCCAC	-3.08 ± 0.24	-3.12 ± 0.32
CAAUAGCAAUAUUACGCGAG	-1.76 ± 0.086	-0.754 ± 0.096
UGACAGCAAUAUUACGGGGA	-1.25 ± 0.087	-1.61 ± 0.12
UGAGAGCAAUAUUACGCCCA	-1.49 ± 0.26	
GAGUAGCAAUAUUACGGAGA	-2.29 ± 0.37	-2.12 ± 0.29
CACAAGCAAUAUUACGCUAU	-4.42 ± 0.26	-1.58 ± 0.14
UGACAGCAAUAUUACGUUUU	-2.76 ± 0.11	-1.43 ± 0.098
GACGAGCAAUAUUACGGCCC	-0.0683 ± 0.45	-0.45 ± 0.4
UAGUAGCAAUAUUACGCACU	-0.737 ± 0.11	-0.331 ± 0.12
UCAAAGCAAUAUUACGUACC	-3.01 ± 0.3	-1.69 ± 0.3
